The data set in a line: yeast display, Sf9 membrane polyspecificity reagent, FACS + sequencing; frameworks hold sequencing errors. In a few lines: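 A nanobody's polyreactivity label depends on the gate it was sorted from. Yeast display cells were stained with 10% biotinylated, detergent-solubilized Sf9 membrane reagent for 1 hour at 4 °C, enriched on streptavidin microbeads and sorted by FACS. The low and high (top ~1%) gates were set on anti-HA fluorescence for expression and streptavidin fluorescence for reagent binding.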
As for “QVQLVESGGGLVEAGGSLRLSCAASGFTFYHNAMGWYRPAPGKERELVAAISSGGTTNYADSVKGRFTISRDNAKNTVYLQMNSLTPEDTAVYYCAARGWGPTRAYDYWGQGTQVTVSS”, the “polyreactivity (PSR sort gate)” value is recorded as “high polyreactivity”.
The same measure for “QVQLVESGGGLVEAGGSLRLSCAASGLTFIVKAIGWYRQAPGKEREFVAAIRSGDGNTHYADSLKGRYTISRDNAKNTVYFQMNSLKPVDTAVYYCNAGFPRSYRFDYWGQGTQVTVSS”: “high polyreactivity”; for “QVQLVESGGGLVEAGGSLRLSCAASGRIFKVYAMGWYRQGPGKERELVAAISRSCGSTYYADSVKGRFTISRDKAKITVSLQMNSLKPEDTAVYYCNAYFVSGHAGGYDYWGQGTQVTVSS”: “high polyreactivity”.
The same measure for “QVQLVESGGGLVEAGGSLRLSCAASGRTFQYYPMGWYRQAPGKERDFVAAITRTGARTYYADSVKGRFTISRDNAKNTVYLQMYSLKPEDTAVYYCAISLTFYSWRDYGYWGQGSQVTVSS”: “high polyreactivity”; for “QVQLVESGGGLVEAGGSLRLSCAASGYIFGSYAMGWYRHAPGKERELVASISKSGGSTYYADSVKGRFTISRDNAKNTVYLQMNSLKPEDTAVYYCAAAGIGGGGWGQGTQVTVSS”: “low polyreactivity”; for “QVQLVESGGGLVEAGGSLRLSCEASGFNFSRYVMGWYRQAPGKERELVAVISYRGGSTYYADSVKGRFTISRDYAKITVYLQMNSLKPEDTAVYYCNADTIPDGEDRYDYWGQGTQVTVSS”: “low polyreactivity”.
As for “QVQLVESGGGLVEAGGSLRLSGAASGSIFRYYSMGWYRQAPGKERELVAAITYSGGTTYYADSVKGRFTISRDNAKNTVYLQMNSLKPEDTAVYYCAATFQANYFSGYYTVYLSDYRGQGTQVTVSS”, the entry is “low polyreactivity”; as for “QVQLVESGGGLVEAGGTLRLSCAASGSIFPINAMGWYRQAPGKQWELVAAITVSDGRTYYADSVKGRFTISRDTAKNTVYLQMNSLKPEDTAVYYCAKSSHAREYYYWGQGNQVTVSS”, “low polyreactivity”.
“QVQLVESGGGLVHAGGSIRLSCSASGRTVGVNMGWYRQSPGKERELVAVISSGDSTNYADSVKGRFTISRDNAKNTFYLQMNSLKQEDTAVYYCNAYGSDRLTLDDYWGQGTQVTVSS”: the “polyreactivity (PSR sort gate)” value is reported as “low polyreactivity”.
As for “QVQLVESGGGLVHAGGSLLLSCAASGFISSRYAMGWYRQAPGKERELVAAISRGGGSTYYADSVKGRFTISRDNAKNSVYLQMNSLKPEYTAVYYCAAAARGSPQYDYWGQGSQVTVSS”, the entry is “high polyreactivity”; as for “QVQLVESGGGLVHAGGSLLLSCSASGSIFTVNAMGWYRQAPGKERELVAAISSGGSTHYADSVKGRFTISRDNAKNTVYLQMISLKPEDTAVYYCAAVYVPYYGYYTRYDYWGQGTQVTVSS”, “low polyreactivity”.
The same measure for “QVQLVESGGGLVHAGGSLRISCAASGRTFSRNAMGWYRQAPGKERELVATISRRGGSTNYADSVKGRFTISRDYAKNTVYLQMNSLKPDDTAVYYCAAGYRVRDDKVYGIVRPMDYWGQGTQVTVSS”: “high polyreactivity”; for “QVQLVESGGGLVHAGGSLRLRCAASGRTFYFSNMGWYRQAPGKQRELVATIRWSAGSTYYADSVKGRFTISRDNAKNSVYLQMKSLKPEDTAVYYCNGDPYVYSSWQYGYWGQGTQVTVSS”: “high polyreactivity”.
On to “QVQLVESGGGLVHAGGSLRLSCAACGNIFKYYTMGWYREAPGKERELVDAITSGGRTNYADSVKGRFTISRDNAKNTVYLKMNSLKPEDTAVYYCAAYDVIYSQGFDYWGQGTQVTVSS”, for which the “polyreactivity (PSR sort gate)” value was “low polyreactivity”.
Consider “QVQLVESGGGLVHAGGSLRLSCAACGRTFGRYPMGSYRQAPGKERELVAAITVGGGSTYYADSVKGRFTISRDYAKNTVYLQMNSLKPEDTAVYYCNALHTYTYRYDYYYWGQGTQVTVSS”, for which the “polyreactivity (PSR sort gate)” value is “high polyreactivity”.
As for “QVQLVESGGGLVHAGGSLRLSCAACGSIYKYNAMGWYRQAPGKERELVAAISYSGCSTYYSDSVNGRFTISRDNAKNTVYLQMNSLKPEDTAVYYCAKSPRASQYNMYDYWGQGTKVTVSS”, the entry is “high polyreactivity”.
As for “QVQLVESGGGLVHAGGSLRLSCAASGFIFGSYTMVWYRTAPGKERELVATITLSDGSTYYADSVNGRFTISRDNANNTVFLQMNSLKPEDTAVYYCNKDKVVVRYDYWGQGTQVTVSS”, the entry is “low polyreactivity”; as for “QVQLVESGGGLVHAGGSLRLSCAASGFILRSYGMGWYRQAPGKERELVAAITRGGSTYYADSVKGRFTISRDNAKNTVYLQMNSLKPEDTAVYYCAARTRYYSQQFDYWGQGTQVTVSS”, “high polyreactivity”; as for “QVQLVESGGGLVHAGGSLRLSCAASGFTFGQYAMGWYRQAPGKERELVAAIRSGGSTNYADSVKGRFTISRDNAKNTVYLQMNSLKPEDTAVYYCAAGYRRGWVTMGYWGQGTQVTVSS”, “high polyreactivity”.
On to “QVQLVESGGGLVHAGGSLRLSCAASGFTFKENAMGWSRPAPGKERELVAAISSTGGSTYYADSVKGRFTISRDNATNNVYLQMHSLNPDDTAVYYCAASTYWYDGDYWGQGTQVTVSS”, for which the “polyreactivity (PSR sort gate)” value is recorded as “high polyreactivity”.
“QVQLVESGGGLVHAGGSLRLSCAASGFTFLYNSMGWYRQAPGKERELVASINSGGSTNYADSVKGRFTISRDNAKNTVYLQMNSLKPEDTAVYYCNAKRHVRKGDYWGQGTQVTVSS”: the “polyreactivity (PSR sort gate)” value is “low polyreactivity”.
As for “QVQLVESGGGLVHAGGSLRLSCAASGFTFRSYTMGWYRQAHGKERELVAAITSRGTSTYYADSVKGRFTISRDNAKNTVYLQMNSLKPEDTAVYYCAAPIYNGYASWQVYYWGQGTQVTVSS”, the “polyreactivity (PSR sort gate)” value was “high polyreactivity”.
The same measure for “QVQLVESGGGLVHAGGSLRLSCAASGFTLRKYVMGWYRQAPGKERELVAAITSYASSTYFADSVKGRFTISRDNSKNTVYLQMNSLKPEDSAVYYCAARRYGEPYGYWGQGTQVTVSS”: “high polyreactivity”; for “QVQLVESGGGLVHAGGSLRLSCAASGGILVFYAMGWYRQAPGKERELVAAINVSGGSTYYADSVKGRYTISRDNAKNTVYLQMNSLKPEDTAVYYCAALGPYLDYGVQYGYWGQGTQVTVSS”: “low polyreactivity”; for “QVQLVESGGGLVHAGGSLRLSCAASGGTFGHYTMGWYRQAPGKERELVAAISGSGGTTYYADSVKGRFTISRDNAKNTVYLQMNSLKPEDTAVYYCAAYSGAYRKWLYDYWGQGTQVTVSS”: “high polyreactivity”.
With “QVQLVESGGGLVHAGGSLRLSCAASGITFSDNTMGWYRQAPGKERELVAAISWRGGRTYYADSVKGRFTISRDYAKNTVSLQMNSLKPEDTAVYYCNAVTSSKARSSSYDYWGQGTQVTVSS”, the “polyreactivity (PSR sort gate)” value was “high polyreactivity”.
The same measure for “QVQLVESGGGLVHAGGSLRLSCAASGLIFTNAMGWYRQAPGKEREFVAAINSSGGSTYADSVKGRFTISRDNAKNTVYLQMNSLKPEDTAVYFCAARVIYLYEYWGQGTQVTVSS”: “low polyreactivity”; for “QVQLVESGGGLVHAGGSLRLSCAASGLISYRYAMGWYRQAPGKERELVAAISWRGGSTYYADSVKGRFTISRDNAKNTVYLQMNSLKPDDTAVYYCNALGLGLFDYWGQGTQVTVSS”: “high polyreactivity”.
Regarding “QVQLVESGGGLVHAGGSLRLSCAASGNIFVEYAMGWYRQAPGKERELVAAITNSGGRTHYADSVKGRFTISRDNAKNTVYLQMNSLKPEDTAVYYCAAPTKYRSRRYYWGQGTQVTVSS”, the “polyreactivity (PSR sort gate)” value is on record as “high polyreactivity”.
The same measure for “QVQLVESGGGLVHAGGSLRLSCAASGRIFIANAMGWYRQAPGNERELVAGIRGSGGRTYYADSVKGRFTISRDNAKNTVYLQMNSLKPEDTAVYDCNARTPGRLGRFDYWGQGTQVTVSS”: “low polyreactivity”.
Regarding “QVQLVESGGGLVHAGGSLRLSCAASGRIFRSYAMGWYRQAPGKERELVAAITSRGGSTYYADYVKGRFTISRDNAKNTVYLQMNILKTEDTAVYYCAADSFRLGVAAWTRYNYWGQGTQVTVSS”, the “polyreactivity (PSR sort gate)” value was “high polyreactivity”.
As for “QVQLVESGGGLVHAGGSLRLSCAASGRIFVRYAMGWYRQAPGKERELVAAINWRGSSTYYADSVKGRFTISRDNAKNTVYLQMNSLKPEDTAVYYCNTAQRYRVYRYDYWGQGTQVTVSS”, the entry is “high polyreactivity”; as for “QVQLVESGGGLVHAGGSLRLSCAASGRIFYVYAMGWYRQAPGKEREFVASISWSGGSTYYADSVKGRFTISRDNAKNTVYLQMNSLKPEDTAVYYCAARVVRYGYKYYYWGQCTQVTVSS”, “low polyreactivity”.
On to “QVQLVESGGGLVHAGGSLRLSCAASGRTFGKYAMGWYRQAPGKERELVAAISSGGTTYYADSVKGRFTISRDNAKNTVYLQMNSLKPEDTAVYYCAADPRYPYNYWGQGTQVTVSS”, for which the “polyreactivity (PSR sort gate)” value is given as “low polyreactivity”.
For the sequence “QVQLVESGGGLVHAGGSLRLSCAASGRTFGWYAMGWYIQAPGKERELVASITHRGGRTYYADSVKGRFTISRDNAKHTVYLQMNSLNPEDTAVYYCAAKTSTGMGYWGQCTQVTVSS”, the “polyreactivity (PSR sort gate)” value is recorded as “high polyreactivity”.
The same measure for “QVQLVESGGGLVHAGGSLRLSCAASGRTFRLYVMGWYRQAPGKERELVASITRGTGTDYADSVKGRFRISRDNAKNTVYLQMNSLKPEDTAVYYCNVKYGQPIYGEFDYWGQGTQVTVSS”: “low polyreactivity”; for “QVQLVESGGGLVHAGGSLRLSCAASGRTFRNNAMVWYRQAPGKEREWVAAITSGGSTNYADSVKGRFTISRDNAKNPVYLQMISLKPEDTGVYYCAKDFWYVTGGWSSGMDYWGQGTQVTVSS”: “low polyreactivity”.
“QVQLVESGGGLVHAGGSLRLSCAASGRTFTLYAMGWYRQAPGKERELVAAITRTGRTTYADSVKGRFTISRDNAKNTVYLQMNSLKPEDTAVYYCAAEVEYTSASIVYYEYEYWGQGTQVTVSS”: the “polyreactivity (PSR sort gate)” value is listed as “high polyreactivity”.
In the case of “QVQLVESGGGLVHAGGSLRLSCAASGRTFVYYAMGWNTQAPGKERELVAAISAGGGSTYYADSEKGRFTISRDNAKITVYFQMNSLNPEDTAVYYCAADGSPEIRDNYWGQGTQVTVSS”, the “polyreactivity (PSR sort gate)” value is given as “high polyreactivity”.
“QVQLVESGGGLVHAGGSLRLSCAASGRTFYIYAMGWYRQAPGKERELVAAISKSGGRTYYADSVKGRITISRDNAKNTVYLQMNSLKPEDTAVYYCNKLVGDDTALYDYWGQGTQVTVSS”: the “polyreactivity (PSR sort gate)” value is recorded as “high polyreactivity”.
The same measure for “QVQLVESGGGLVHAGGSLRLSCAASGRTFYIYAMGWYRQAPGKERELVADITSGGSTYYADSVKGRFTISRDNAKNTVYLQMNSLKPEDTAVYYCAADWVTFYSYTEYDYWGQGTQVTVSS”: “low polyreactivity”.

These data come from the nanobody polyreactivity screen of Harvey et al. (2022).
